Measured values taken from patent US20200283523A1 (WUXI BIOLOGICS IRELAND, published 2020).

Legend:
human CD19 [1] = molecular target: T1, human CD19 (human, UniProt P15391 20-556); assay: cell-based or functional assay
T1 sequence (looked up): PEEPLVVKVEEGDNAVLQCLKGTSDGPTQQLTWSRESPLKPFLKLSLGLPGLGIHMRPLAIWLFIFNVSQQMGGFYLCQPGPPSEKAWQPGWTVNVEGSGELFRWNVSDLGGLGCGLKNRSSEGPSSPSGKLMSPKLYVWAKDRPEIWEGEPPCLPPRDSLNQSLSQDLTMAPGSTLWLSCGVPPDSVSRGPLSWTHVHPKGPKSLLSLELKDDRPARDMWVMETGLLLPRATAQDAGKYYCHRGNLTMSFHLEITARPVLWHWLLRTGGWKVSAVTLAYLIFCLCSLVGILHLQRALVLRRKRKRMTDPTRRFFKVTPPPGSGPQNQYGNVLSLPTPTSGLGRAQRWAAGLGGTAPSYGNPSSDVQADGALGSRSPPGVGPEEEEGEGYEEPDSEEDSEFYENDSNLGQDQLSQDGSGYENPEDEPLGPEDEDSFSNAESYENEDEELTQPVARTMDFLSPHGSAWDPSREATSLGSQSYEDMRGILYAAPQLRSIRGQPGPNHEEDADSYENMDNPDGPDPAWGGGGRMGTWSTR

human CD19 [2] = molecular target: T1, human CD19; assay: flow cytometry on Ramos cells
human CD3 = molecular target: T2, human CD3 (human, UniProt P07766 23-207); assay: flow cytometry on Jurkat cells
T2 construct: whole, on cells; On cells CD3 stands as the full CD3/TCR complex; also called CD3 on Jurkat cells
T2 sequence (P07766 23-207): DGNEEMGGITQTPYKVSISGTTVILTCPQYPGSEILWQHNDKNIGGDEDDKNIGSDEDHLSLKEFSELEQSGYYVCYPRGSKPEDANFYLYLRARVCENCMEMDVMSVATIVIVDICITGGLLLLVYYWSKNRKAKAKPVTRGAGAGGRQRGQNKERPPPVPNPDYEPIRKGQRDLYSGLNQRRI

B1: W3438-T3U4.F16-1.uIgG4.SP (bispecific antibody)
light 1: DIVMTQSPDSLAVSLGERATINCKSSQSLLNSRTRKNYLAWYQQKPGQPPKLLIYWASTRQSGVPDRFSGSGSGTDFTLTISSLQAEDVAVYYCTQSHTLRTFGGGTKVEIKPDIQNPDPAVYQLRDSKSSDKSVCLFTDFDSQTQVSQSKDSDVYITDKCVLDMRSMDFKSNSAVAWSQKSDFACANAFQNSIIPEDTFFPSPESS
heavy 1: QVQLVQSGAEVKKPGSSVKVSCKASGFAFTDYYIHWVRQAPGQGLEWMGWISPGNVNTKYNENFKGRVTITADKSTSTAYMELSSLRSEDTAVYYCARDGYSLYYFDYWGQGTLVTVLEDLKNVFPPEVAVFEPSEAEISHTQKATLVCLATGFYPDHVELSWWVNGKEVHSGVCTDPQPLKEQPALQDSRYALSSRLRVSATFWQNPRNHFRCQVQFYGLSENDEWTQDRAKPVTQIVSAEAWGRYGPPCPPCPAPEFLGGPSVFLFPPKPKDTLMISRTPEVTCVVVDVSQEDPEVQFNWYVDGVEVHNAKTKPREEQFNSTYRVVSVLTVLHQDWLNGKEYKCKVSNKGLPSSIEKTISKAKGQPREPQVYTLPPCQEEMTKNQVSLWCLVKGFYPSDIAVEWESNGQPENNYKTTPPVLDSDGSFFLYSRLTVDKSRWQEGNVFSCSVMHEALHNHYTQKSLSLSLGK
light 2: DIQLTQSPSFLSASVGDRVTITCSASSTVNYMHWYQQKPGKAPKLLIYSTSNLASGVPSRFSGSGSGTEFTLTISSLQPEDFATYYCHQWSSYPYTFGQGTKLEIKRTVAAPSVFIFPPSDEQLKSGTASVVCLLNNFYPREAKVQWKVDNALQSGNSQESVTEQDSKDSTYSLSSTLTLSKADYEKHKVYACEVTHQGLSSPVTKSFNRGEC
heavy 2: QMQLVQSGPEVKKPGTSVKVSCKASGYAFTSYNMYWVRQARGQRLEWIGYIDPYNGDTTYNQKFKGRVTITRDMSTSTAYMELSSLRSEDTAVYYCLTTAYAMDYWGQGTLVTVSSASTKGPSVFPLAPCSRSTSESTAALGCLVKDYFPEPVTVSWNSGALTSGVHTFPAVLQSSGLYSLSSVVTVPSSSLGTKTYTCNVDHKPSNTKVDKRVGGGGSGGGGSQMQLVQSGPEVKKPGTSVKVSCKASGYAFTSYNMYWVRQARGQRLEWIGYIDPYNGDTTYNQKFKGRVTITRDMSTSTAYMELSSLRSEDTAVYYCLTTAYAMDYWGQGTLVTVSSASTKGPSVFPLAPCSRSTSESTAALGCLVKDYFPEPVTVSWNSGALTSGVHTFPAVLQSSGLYSLSSVVTVPSSSLGTKTYTCNVDHKPSNTKVDKRVESKYGPPCPPCPAPEFLGGPSVFLFPPKPKDTLMISRTPEVTCVVVDVSQEDPEVQFNWYVDGVEVHNAKTKPREEQFNSTYRVVSVLTVLHQDWLNGKEYKCKVSNKGLPSSIEKTISKAKGQPREPQVCTLPPSQEEMTKNQVSLSCAVKGFYPSDIAVEWESNGQPENNYKTTPPVLDSDGSFFLVSRLTVDKSRWQEGNVFSCSVMHEALHNHYTQKSLSLSLGK
notes: also called WuXiBody
Human CD19 [1]
  cytotoxic activity on Raji cells with CD8+ T cells, EC50: 3.2 nM
Human CD19 [2]
  EC50: 1.8 nM
Human CD3
  EC50: 19.3 nM
